Assay results taken from the RNAGym collection of RNA variant scans (doi:10.7554/elife.80360).

B1: Hairpin Ribozyme (parent)
chain: GUCCUCUUUCACGUGCGCGUGAAAGAGAGAAGUGAACCAGAGAAACACACGUUGUGGUAUAUUACCUGGUA

Variants of: B1
Assay: self-cleavage, relative activity (ratio to wild type); higher = more cleavage; co-transcriptional
C3A gave a self-cleavage of 0.714. Variant U2C U14A has a self-cleavage of 0.0424. Work on U2G U62C yielded a self-cleavage of 0.0918. Work on U2G U62G yielded a self-cleavage of 0.11. U2G G69U gave a self-cleavage of 0.116. U2G G69A showed a self-cleavage of 0.109. Work on U2C A61U yielded a self-cleavage of 0.0427. Work on C3A A28C yielded a self-cleavage of 0.648. In the case of C3A A28G, the self-cleavage is reported as 0.453. In the case of U2A G69C, the self-cleavage is reported as 0.111. For U2C A39C, the self-cleavage was 0.0668. With U2C A39G the self-cleavage was 0.0933. Variant G1U U55G has a self-cleavage of 0.104. In the case of G1U U55A, the self-cleavage is reported as 0.224. Variant U2G U9A has a self-cleavage of 0.242. With U2G U9G the self-cleavage was 0.206. U2G C18G showed a self-cleavage of 0.373. In the case of U2G C18A, the self-cleavage is reported as 0.379. With U2C A49G the self-cleavage was 0.0598. U2C A49C gave a self-cleavage of 0.189. With G1U G56U the self-cleavage was 0.0984. For G1C U67C, the self-cleavage was 0.119. For G1U U58A, the self-cleavage was 0.0365. Variant U2A A64U has a self-cleavage of 0.0942. For U2G G13U, the self-cleavage was 0.246. U2G G13C showed a self-cleavage of 0.29. Work on C3A A22C yielded a self-cleavage of 0.593. Work on U2C C16G yielded a self-cleavage of 0.246. G1C U53A gave a self-cleavage of 0.2. In the case of U2C G40C, the self-cleavage is reported as 0.0737. In the case of U2C G40A, the self-cleavage is reported as 0.192. Variant U2A A26G has a self-cleavage of 0.321. Work on U2A C66A yielded a self-cleavage of 0.124. U2G G42C showed a self-cleavage of 0.252. In the case of U2C G27A, the self-cleavage is reported as 0.129. Variant U2C G27U has a self-cleavage of 0.0539. For U2C G51C, the self-cleavage was 0.506. Work on U2C G51A yielded a self-cleavage of 0.219. For G1U U62A, the self-cleavage was 0.147. For U2G C38G, the self-cleavage was 0.172. U2G C38A gave a self-cleavage of 0.143. U2C C6G gave a self-cleavage of 0.0983. U2C C6A gave a self-cleavage of 0.0756. U2C C6U gave a self-cleavage of 0.245. For U2A A31C, the self-cleavage was 0.13. In the case of U2G A28C, the self-cleavage is reported as 0.384. Work on U2A A49C yielded a self-cleavage of 0.149. Work on U2G C37G yielded a self-cleavage of 0.0975. U2A U8C showed a self-cleavage of 0.162. For U2A U8A, the self-cleavage was 0.279. With U2A U8G the self-cleavage was 0.201. In the case of U2G A30U, the self-cleavage is reported as 0.117. With U2G A30C the self-cleavage was 0.108. Variant G1U C65U has a self-cleavage of 0.0631. Work on G1U C65G yielded a self-cleavage of 0.236. For U2C A31C, the self-cleavage was 0.226. Work on U2C U58G yielded a self-cleavage of 0.148. With U2C C65U the self-cleavage was 0.162. For U2C C65G, the self-cleavage was 0.0439. For G1U G19A, the self-cleavage was 0.208. In the case of G1U A44C, the self-cleavage is reported as 0.0421. Work on U2C A64U yielded a self-cleavage of 0.107. U2C A64C gave a self-cleavage of 0.0771. With U2C G34A the self-cleavage was 0.217. With G1U G27A the self-cleavage was 0.148. U2C A44U gave a self-cleavage of 0.201. In the case of U2A U70C, the self-cleavage is reported as 0.288. In the case of C3A A39G, the self-cleavage is reported as 0.192. C3A A39C showed a self-cleavage of 0.328. For C3A A39U, the self-cleavage was 0.252. With G1U A35G the self-cleavage was 0.0705. G1U A35C gave a self-cleavage of 0.0858. For U2G G57U, the self-cleavage was 0.209. With U2A A45C the self-cleavage was 0.154. U2A A45G gave a self-cleavage of 0.0349. Work on U2G G19A yielded a self-cleavage of 0.311. C3A A59G gave a self-cleavage of 0.0686. Variant C3A A59C has a self-cleavage of 0.121. Variant G1U has a self-cleavage of 0.13. Work on U2A G51C yielded a self-cleavage of 0.125. In the case of U2A G51A, the self-cleavage is reported as 0.233. Variant U2A U52C has a self-cleavage of 0.169. U2A U52A showed a self-cleavage of 0.285. Variant U2A G15U has a self-cleavage of 0.289. Work on U2C G56A yielded a self-cleavage of 0.177. G1U A24U showed a self-cleavage of 0.117. Work on G1C G51C yielded a self-cleavage of 0.0946. With G1C G51U the self-cleavage was 0.181. G1U G17U showed a self-cleavage of 0.162. G1C U8A gave a self-cleavage of 0.27. G1U U5A gave a self-cleavage of 0.163. In the case of U2A C38G, the self-cleavage is reported as 0.121. U2A C38A gave a self-cleavage of 0.115. Work on U2C U7C yielded a self-cleavage of 0.246. Work on U2C U7G yielded a self-cleavage of 0.105. Variant U2A A71C has a self-cleavage of 0.656. U2A A71U showed a self-cleavage of 0.186. In the case of C3A A30C, the self-cleavage is reported as 0.14. Variant C3A A30G has a self-cleavage of 0.146. For U2G C46U, the self-cleavage was 0.11. Variant G1U G40C has a self-cleavage of 0.055. Variant G1U A47U has a self-cleavage of 0.0955. In the case of U2C C18U, the self-cleavage is reported as 0.162. Variant U2G C6U has a self-cleavage of 0.303. U2G C6A gave a self-cleavage of 0.196. Variant U2G C6G has a self-cleavage of 0.155. Work on U2C G68C yielded a self-cleavage of 0.187. Work on U2C G68A yielded a self-cleavage of 0.0299. In the case of G1U A59G, the self-cleavage is reported as 0.216. Variant C3A A26G has a self-cleavage of 0.736. C3A A26C showed a self-cleavage of 0.402. G1C U55C showed a self-cleavage of 0.18. G1C U55A showed a self-cleavage of 0.0884. In the case of U2A U14C, the self-cleavage is reported as 0.265. U2G U58A showed a self-cleavage of 0.263. For U2G U58G, the self-cleavage was 0.255. In the case of U2G A41U, the self-cleavage is reported as 0.71. Variant U2A U63A has a self-cleavage of 0.0695. Work on U2A U63C yielded a self-cleavage of 0.0787. In the case of G1U G51A, the self-cleavage is reported as 0.205. G1U G51C gave a self-cleavage of 0.175. For U2A G40C, the self-cleavage was 0.12. U2A G40A showed a self-cleavage of 0.0928. With U2A A44U the self-cleavage was 0.0374. U2A A44C showed a self-cleavage of 0.0634. With U2G A64G the self-cleavage was 0.159. U2G A64C gave a self-cleavage of 0.165. Variant U2G A61C has a self-cleavage of 0.109. U2G A61G showed a self-cleavage of 0.15. U2C G57U gave a self-cleavage of 0.131. In the case of G1U G34A, the self-cleavage is reported as 0.143. For G1U G34U, the self-cleavage was 0.19. Work on U2A C4U yielded a self-cleavage of 0.0895. With U2G G34A the self-cleavage was 0.37. G1C G69A gave a self-cleavage of 0.141. G1C G69U gave a self-cleavage of 0.144. Variant G1U U60G has a self-cleavage of 0.259. G1U A11G gave a self-cleavage of 0.143. In the case of G1U A11U, the self-cleavage is reported as 0.201. For U2A G56C, the self-cleavage was 0.0929. For U2A G56A, the self-cleavage was 0.173. With G1U U9C the self-cleavage was 0.0677. Work on G1U U9G yielded a self-cleavage of 0.224. With U2A G13C the self-cleavage was 0.158. U2A G13A showed a self-cleavage of 0.26. G1U G69A showed a self-cleavage of 0.0764. With G1U C18G the self-cleavage was 0.131. Variant C3A A61U has a self-cleavage of 0.199. For G1U U8A, the self-cleavage was 0.144. Variant G1U U8G has a self-cleavage of 0.0482. For U2C C38U, the self-cleavage was 0.147. Variant U2C C38A has a self-cleavage of 0.0742. For G1U G15A, the self-cleavage was 0.171. Variant U2G G21U has a self-cleavage of 0.236. U2G G21C gave a self-cleavage of 0.364. U2A U7A gave a self-cleavage of 0.331. In the case of G1U C50U, the self-cleavage is reported as 0.0718. For G1U A22C, the self-cleavage was 0.146. In the case of U2A G32U, the self-cleavage is reported as 0.155. For U2C A22G, the self-cleavage was 0.0938. Variant U2A G25U has a self-cleavage of 0.204. For U2C U70A, the self-cleavage was 0.241. With G1U G54C the self-cleavage was 0.176. With G1U A61U the self-cleavage was 0.116. Work on G1U A61C yielded a self-cleavage of 0.0683. With G1U A61G the self-cleavage was 0.041. U2A A61C gave a self-cleavage of 0.0595.
